PMC11946513 (The Journal of Biological Chemistry, 2025)

Biological target: T1, KAT6A MYST domain (KAT6A 501-784) (human, UniProt Q92794 501-784, autoacetylated K604 (as seen in the structure))
T1 construct: KAT6A (MOZ), human, acetyltransferase (MYST) domain, residues 501-784, NCBI NP_006757.2; also called pHis-MYST domain; not shown: polyhistidine, N-terminal, cleaved
Assay: crystal structure; KAT6A MYST domain at 8 mg/ml complexed with H3K14-CoA in a 1:10 M ratio, 4 h at 4 °C; sitting drop, 1.25 M NH4SO4, 0.28 M NaCl, 0.1 M HEPES pH 6.4, 21 °C
Conditions: both partners purified

T1 sequence (Q92794 501-784): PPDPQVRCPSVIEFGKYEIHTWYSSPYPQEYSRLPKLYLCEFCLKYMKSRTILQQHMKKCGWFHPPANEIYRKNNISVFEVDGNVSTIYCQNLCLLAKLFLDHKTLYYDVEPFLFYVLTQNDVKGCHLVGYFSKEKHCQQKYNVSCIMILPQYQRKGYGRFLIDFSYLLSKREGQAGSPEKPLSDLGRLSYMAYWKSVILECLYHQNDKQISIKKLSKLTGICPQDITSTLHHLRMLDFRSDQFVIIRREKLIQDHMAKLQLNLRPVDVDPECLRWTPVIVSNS

binding result: binds
B1: H3K14-CoA bisubstrate inhibitor (peptide)
peptide: QTARKSTGGKAPRKQLATK
modifications: ε-amino group of K14 covalently attached to CoA through a non-native acetyl bridge; 6-aminohexanoic acid (Ahx) linker on the N-terminus
notes: histone H3 tail, residues 5-23; Made on Rink Amide resin, so the C-terminus is probably an amide (surmised); Only residues 10-17 are resolved in the structure; also called peptidyl-CoA analogue; H3 (5-23) with K14 attached to CoA; source: synthetic peptide (manual Fmoc synthesis on Nova PEG Rink Amide, HPLC purified, coupled to Coenzyme A)
